# Results reported in paper PMC5548745, “Agonist-induced dimer dissociation as a macromolecular step in G protein-coupled receptor signaling” (Nature Communications, 2017).
# Numbering of substitutions follows the chain as printed. In names and notes the source's numbering stands.
# B1: DVL2-MYC: overexpressed MYC-tagged DVL2 (protein, UniProt O14641 1-736, looked up)
# Segment polarity protein …: MAGSSTGGGGVGETKVIYHLDEEETPYLVKIPVPAERITLGDFKSVLQRPAGAKYFFKSMDQDFGVVKEEISDDNARLPCFNGRVVSWLVSSDNPQPEMAPPVHEPRAELAPPAPPLPPLPPERTSGIGDSRPPSFHPNVSSSHENLEPETETESVVSLRRERPRRRDSSEHGAGGHRTGGPSRLERHLAGYESSSTLMTSELESTSLGDSDEEDTMSRFSSSTEQSSASRLLKRHRRRRKQRPPRLERTSSFSSVTDSTMSLNIITVTLNMEKYNFLGISIVGQSNERGDGGIYIGSIMKGGAVAADGRIEPGDMLLQVNDMNFENMSNDDAVRVLRDIVHKPGPIVLTVAKCWDPSPQAYFTLPRNEPIQPIDPAAWVSHSAALTGTFPAYPGSSSMSTITSGSSLPDGCEGRGLSVHTDMASVTKAMAAPESGLEVRDRMWLKITIPNAFLGSDVVDWLYHHVEGFPERREARKYASGLLKAGLIRHTVNKITFSEQCYYVFGDLSGGCESYLVNLSLNDNDGSSGASDQDTLAPLPGATPWPLLPTFSYQYPAPHPYSPQPPPYHELSSYTYGGGSASSQHSEGSRSSGSTRSDGGAGRTGRPEERAPESKSGSGSESEPSSRGGSLRRGGEASGTSDGGPPPSRGSTGGAPNLRAHPGLHPYGPPPGMALPYNPMMVVMMPPPPPPVPPAVQPPGAPPVRDLGSVPPELTASRQSFHMAMGNPSEFFVDVM
# modifications: MYC tag
# B2: FZD6 dimer control mutant: FZD6 with D365E, R368K, Y369F (protein)
# chain: HSLFTCEPITVPRCMKMAYNMTFFPNLMGHYDQSIAAVEMEHFLPLANLECSPNIETFLCKAFVPTCIEQIHVVPPCRKLCEKVYSDCKKLIDTFGIRWPEELECDRLQYCDETVPVTFDPHTEFLGPQKKTEQVQRDIGFWCPRHLKTSGGQGYKFLGIDQCAPPCPNMYFKSDELEFAKSFIGTVSIFCLCATLFTFLTFLIDVRRFRYPERPIIYYSVCYSIVSLMYFIGFLLGDSTACNKADEKLELGDTVVLGSQNKACTVLFMLLYFFTMAGTVWWVILTITWFLAAGRKWSCEAIEQKAVWFHAVAWGTPGFLTVMLLAMNKVEGDNISGVCFVGLYDLEASKFFVLLPLCLCVFVGLSLLLAGIISLNHVRQVIQHDGRNQEKLKKFMIRIGVFSGLYLVPLVTLLGCYVYEQVNRITWEITWVSDHCRQYHIPCPYQAKAKARPELALFMIKYLMTLIVGISAVFWVGSKKTCTEWAGFFKRNRKRDPISESRRVLQESCEFFLKHNSKVKHKKKHYKPSSHKLKVISKSMGTSTGATANHGTSAVAITSHDYLGQETLTEIQTSPETSMREVKADGASTPRLREQDCGEPASPAASISRLSGEQVDGKGQAGSVSESARSEGRISPKSDITDTGLAQSNNLQVPSSSEPSSLKGSTSLLVHPVSGVRKEQGGGCHSDT
# modifications: left off: GFP, C-terminal, kept
# notes: FZD6 with D365E, R368K, Y369F
# B3: FZD6 F337A mutant: FZD6 with F337A mutation on TM4 (protein)
# chain: B2 chain with F319A, E347D, K350R, F351Y
# Tests used:
# [1] = circular dichroism of synthetic TM peptides; format: physicochemical; conditions: DDM detergent solution; lipophilic environment
# Protocol: CD spectra were recorded using a J-810 spectropolarimeter (Jasco, Easton, MD, USA) in a 0.1 cm quartz cuvette. Far-UV CD spectra were collected over 190–260 nm. ITC measurements were carried out at 20 °C on an ITC (VP–ITC 200, MicroCal). 820 µM FZD6 TM5 and 165 µM FZD6 TM4 were dissolved in 0.5% DDM in water. 2 µl of TM5 peptide were injected into 260 µl TM4 during each titration. The ITC data were analyzed with the Origin 7.0 software.
# Supplementary Figure 5: Circular dichroism (CD) and isothermal titration calorimetry (ITC) experiments for structural analysis of synthetic peptides resembling TM1, 4, 5 and mutant TM5 and of peptide-peptide interactions, related to Figure 3. Synthetic peptides (for sequence see Supplementary Fig. 9) resembling TM1 (a), 4 (b), 5 (c) and mutant TM5 (d) were used for CD experiments in triple distilled water with increasing DDM concentrations (0% DDM – black, 0.01% DDM – blue, 0.1% DDM – green and 0.5% DDM – red). (c)TM5 is unstructured in TDW and begins to gain structure at 0.1% DDM. It forms a clear α-helical structure in 0.5% DDM. The triple mutated TM5 (d) forms an α-helix in a much lower DDM concentration (0.01% DDM). […]
# [2] = system: FZD6–FZD6 dimer; experiment: dcFRAP of V5-FZD6-mCherry/FZD6-GFP (FZD6 dimerization); format: cell-based, human; conditions: HEK293; for dimerization by CL-induced decrease of mobile fraction: GFP-tagged mutant with wt V5-FZD6-mCherry, anti-V5/avidin crosslinking
# Protocol: For dual color FRAP experiments, cells grown in four compartment 35 mm glass bottom dishes were washed three times with BE buffer[19] (150 mM NaCl, 2.5 mM KCl, 10 mM HEPES, 12 mM glucose, 0.5 mM CaCl2, and 0.5 mM MgCl2). Then, the cells were incubated at RT for 30 min with biotin-conjugated goat polyclonal anti-V5 antibody (Bethyl) diluted 1:100 in BE buffer supplemented with 2.5% bovine serum albumin. For antibody-mediated cross-linking, avidin was added and incubated for 15 min and washed two times with BE buffer before the experiments were performed. In Fig. 4, dcFRAP experiments are presented that employ chemical surface crosslinking to visualize assembly of FZD6 with DVL or heterotrimeric G proteins according to previously published protocols. Live cell imaging experiments were carried out using a Zeiss 710 laser scanning microscope. Images were acquired using a 40×, 1.2 NA C-Apochromat objective and the 488 nm and the 561 nm laser lines were used to excite GFP and mCherry fluorophores, respectively. Photobleaching was performed by 100% laser illumination of a 1.80 × 1.80 µm area placed over the cell plasma membrane. Fluorescence was measured pre- and post-bleach using low-intensity illumination for a total time period of 100 s. Average pixel intensity was measured using the ZEN2013 software, corrected for background fluctuations and bleaching artifacts and normalized to pre-bleached intensity. The recovered mobile fraction (F m) was calculated as follows: F m = (I P–I 0)/(I I–I 0), where I I is the initial intensity measured prior to bleaching, I 0 is the immediate fluorescence intensity post-bleaching and I P is intensity value post-bleaching. The mobile fraction was defined by the average of the fluorescence recovery assessed between time 85–101 s (including pre-bleach measurements). We excluded experiments in which the extracellularly tagged receptors were not sufficiently immobilized after the crosslinking procedure (cutoff at 40% crosslinking-induced reduction in mobile fraction). Kinetic determination of mobile fractions of crosslinked V5-FZD6-mCherry and FZD6-GFP with WNT stimulation over time were performed in one cell culture well. Measurements for each time point were performed on separate cells.
# Statistical and graphical analysis was performed using Graph Pad Prism 5 software. Data were analyzed by two-tailed t-test or one-way ANOVA with Fisher’s least significant difference post hoc analysis. Curve fitting of FRAP data was done with a two-phase association nonlinear function using the least square fit. Data for receptor titration in the presence of C59 and output to P-ERK1/2 in Fig. 6h was fit to a linear regression model. All experiments were repeated at least three times in independent experiments (not representing technical replicates). For single cell analysis (dcFRAP), the number of the individual ROIs obtained from several cells in at least three independent experiments is provided in the figure legends. Data from individual ROIs are summarized for data presentation providing the sum of independent observations. Significance levels are given as: *P < 0.05; **P < 0.01; ***P < 0.001. Data in FRAP curves and bar graphs (FRAP) are presented as mean ± s.e.m.
Molecule,dimerization by CL-induced decrease of mobile fraction [2],further results
"KKKVWFHAVAWGTPGFLTVMLLAMNKKK [TM4, synthetic peptide of FZD6 transmembrane helix 4]",–,secondary structure in detergent (CD) [1]: structured and α-helical
B1,–,"effect of altered DVL level on FZD6 dimer formation ([2]; V5-FZD6-mCherry/FZD6-GFP, pan-DVL siRNA or overexpressed DVL2-MYC): Absence of a role for DVL and G proteins in FZD6 dimer formation"
B2,maintained the intrinsic ability of FZD6 to form dimers,–
B3,exhibited a reduced ability to dimerize,–
